Assays:
[1] = target: T1, T27F2.4 (T27F2.4) (Caenorhabditis elegans) (UniProt Q22835)
T1 sequence: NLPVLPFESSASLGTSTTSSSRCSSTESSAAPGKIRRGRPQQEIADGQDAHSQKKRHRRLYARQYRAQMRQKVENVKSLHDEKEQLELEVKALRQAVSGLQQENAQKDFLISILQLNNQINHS

[2] = test system: T2, C34D1.1 (C34D1.1) (Caenorhabditis elegans)
T2 sequence: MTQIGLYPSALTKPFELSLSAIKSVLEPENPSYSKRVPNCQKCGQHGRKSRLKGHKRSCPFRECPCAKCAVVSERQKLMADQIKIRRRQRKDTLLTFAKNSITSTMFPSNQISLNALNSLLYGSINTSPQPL

[3] = test system: T3, dmd-3 (Y43F8C.10) (Caenorhabditis elegans)
T3 sequence: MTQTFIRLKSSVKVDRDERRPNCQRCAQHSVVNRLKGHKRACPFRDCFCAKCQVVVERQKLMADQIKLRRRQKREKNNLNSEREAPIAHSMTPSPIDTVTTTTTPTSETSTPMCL

[4] = target: T4, T07C12.11 (T07C12.11) (Caenorhabditis elegans) (UniProt G5EGG9)
T4 sequence: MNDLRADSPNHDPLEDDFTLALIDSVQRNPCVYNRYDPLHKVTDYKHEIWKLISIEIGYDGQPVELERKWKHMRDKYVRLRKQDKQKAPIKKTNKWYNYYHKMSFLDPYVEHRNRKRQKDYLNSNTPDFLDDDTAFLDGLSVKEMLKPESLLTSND

[5] = target: T5, Y51H4A.4 (Y51H4A.4) (Caenorhabditis elegans) (UniProt Q9NAE4)
T5 sequence: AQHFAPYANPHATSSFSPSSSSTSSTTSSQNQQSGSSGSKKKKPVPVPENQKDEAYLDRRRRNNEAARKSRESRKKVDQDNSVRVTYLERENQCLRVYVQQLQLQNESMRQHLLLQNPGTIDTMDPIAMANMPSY

[6] = target: T6, atf-2 (K08F8.2) (Caenorhabditis elegans) (UniProt Q21361)
T6 sequence: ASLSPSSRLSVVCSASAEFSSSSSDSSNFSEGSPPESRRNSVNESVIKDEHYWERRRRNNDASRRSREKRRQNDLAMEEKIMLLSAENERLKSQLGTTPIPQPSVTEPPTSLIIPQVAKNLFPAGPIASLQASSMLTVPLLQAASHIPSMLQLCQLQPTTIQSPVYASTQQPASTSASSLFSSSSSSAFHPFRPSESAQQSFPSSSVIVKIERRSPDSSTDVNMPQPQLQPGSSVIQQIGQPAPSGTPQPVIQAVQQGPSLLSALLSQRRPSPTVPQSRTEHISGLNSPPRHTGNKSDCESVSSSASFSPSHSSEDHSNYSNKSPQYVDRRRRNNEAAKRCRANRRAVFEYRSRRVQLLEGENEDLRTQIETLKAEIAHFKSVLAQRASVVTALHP

[7] = target: T7, hlh-16 (DY3.3) (Caenorhabditis elegans) (UniProt O45320)
T7 sequence: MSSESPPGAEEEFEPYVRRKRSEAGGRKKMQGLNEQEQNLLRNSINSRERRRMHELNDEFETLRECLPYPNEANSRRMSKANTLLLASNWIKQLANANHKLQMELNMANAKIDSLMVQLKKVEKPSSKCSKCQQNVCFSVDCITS

[8] = target: T8, nhr-122 (Y41D4B.9) (Caenorhabditis elegans) (UniProt Q95Y09)
T8 sequence: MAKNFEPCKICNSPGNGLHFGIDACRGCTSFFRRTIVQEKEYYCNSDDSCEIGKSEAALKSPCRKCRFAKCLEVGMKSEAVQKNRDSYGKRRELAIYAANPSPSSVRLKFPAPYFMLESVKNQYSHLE

[9] = target: T9, Y44A6D.3 (Y44A6D.3) (Caenorhabditis elegans) (UniProt Q9XXE0)
T9 sequence: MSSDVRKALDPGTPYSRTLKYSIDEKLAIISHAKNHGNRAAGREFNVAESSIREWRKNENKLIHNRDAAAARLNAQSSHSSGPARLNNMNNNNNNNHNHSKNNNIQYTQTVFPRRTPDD

[10] = target: T10, jun-1 (T24H10.7) (Caenorhabditis elegans) (UniProt G5ECU7)
T10 sequence: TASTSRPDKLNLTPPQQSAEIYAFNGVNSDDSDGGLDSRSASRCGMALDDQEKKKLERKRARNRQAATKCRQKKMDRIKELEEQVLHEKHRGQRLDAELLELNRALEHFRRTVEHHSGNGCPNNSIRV

[11] = target: T11, Y67D8A.3 (Y67D8A.3) (Caenorhabditis elegans) (UniProt Q95XU1)
T11 sequence: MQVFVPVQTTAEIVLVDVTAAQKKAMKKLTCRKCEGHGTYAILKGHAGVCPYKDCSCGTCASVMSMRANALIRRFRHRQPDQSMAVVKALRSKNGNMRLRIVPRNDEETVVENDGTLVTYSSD

[12] = target: T12, K02D7.2 (K02D7.2) (Caenorhabditis elegans) (UniProt O45103)
T12 sequence: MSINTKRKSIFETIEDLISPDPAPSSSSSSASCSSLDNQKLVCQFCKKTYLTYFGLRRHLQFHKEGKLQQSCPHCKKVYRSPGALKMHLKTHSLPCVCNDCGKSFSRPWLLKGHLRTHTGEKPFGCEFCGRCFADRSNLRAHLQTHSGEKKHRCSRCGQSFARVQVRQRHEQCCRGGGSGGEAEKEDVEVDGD

[13] = target: T13, ces-1 (F43G9.11) (Caenorhabditis elegans) (UniProt G5ECN8)
T13 sequence: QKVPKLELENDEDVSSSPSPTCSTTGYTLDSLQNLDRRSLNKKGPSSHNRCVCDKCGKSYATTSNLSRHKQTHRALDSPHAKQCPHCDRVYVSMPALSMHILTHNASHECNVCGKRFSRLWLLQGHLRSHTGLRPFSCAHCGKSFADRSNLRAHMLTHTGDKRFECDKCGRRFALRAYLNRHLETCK

[14] = target: T14, mab-3 (Y53C12B.5) (Caenorhabditis elegans) (UniProt O18214)
T14 sequence: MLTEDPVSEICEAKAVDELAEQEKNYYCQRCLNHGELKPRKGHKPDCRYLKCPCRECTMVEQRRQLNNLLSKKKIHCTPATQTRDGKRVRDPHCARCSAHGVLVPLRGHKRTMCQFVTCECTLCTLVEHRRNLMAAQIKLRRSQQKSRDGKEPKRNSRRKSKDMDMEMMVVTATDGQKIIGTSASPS

## AATTCGTA (double strand) [8-mer AATTCGTA]
[1]
  binding signal (PBM E-score (-0.5 to 0.5)): 0.47

## AGAAACAT (double strand) [8-mer AGAAACAT]
[2]
  binding signal (PBM E-score (-0.5 to 0.5)): 0.492
[3]
  binding signal (PBM E-score (-0.5 to 0.5)): 0.466

## TTACGCAA (double strand) [8-mer TTACGCAA]
[4]
  binding signal (PBM E-score (-0.5 to 0.5)): 0.494
[5]
  binding signal (PBM E-score (-0.5 to 0.5)): 0.487
[6]
  binding signal (PBM E-score (-0.5 to 0.5)): 0.483

## CAATATGG (double strand) [8-mer CAATATGG]
[7]
  binding signal (PBM E-score (-0.5 to 0.5)): 0.486

## GACTCCAA (double strand) [8-mer GACTCCAA]
[8]
  binding signal (PBM E-score (-0.5 to 0.5)): 0.459

## TGGCGTAA (double strand) [8-mer TGGCGTAA]
[6]
  binding signal (PBM E-score (-0.5 to 0.5)): 0.452

## TACTCCAA (double strand) [8-mer TACTCCAA]
[8]
  binding signal (PBM E-score (-0.5 to 0.5)): 0.459

## ATGTTTCA (double strand) [8-mer ATGTTTCA]
[2]
  binding signal (PBM E-score (-0.5 to 0.5)): 0.498
[3]
  binding signal (PBM E-score (-0.5 to 0.5)): 0.479

## ATACTCCA (double strand) [8-mer ATACTCCA]
[8]
  binding signal (PBM E-score (-0.5 to 0.5)): 0.456

## GTTGCGCA (double strand) [8-mer GTTGCGCA]
[9]
  binding signal (PBM E-score (-0.5 to 0.5)): 0.493
[6]
  binding signal (PBM E-score (-0.5 to 0.5)): 0.452

## ATTAGTCA (double strand) [8-mer ATTAGTCA]
[10]
  binding signal (PBM E-score (-0.5 to 0.5)): 0.463

## GTGACTCA (double strand) [8-mer GTGACTCA]
[10]
  binding signal (PBM E-score (-0.5 to 0.5)): 0.47

## TTACATAA (double strand) [8-mer TTACATAA]
[5]
  binding signal (PBM E-score (-0.5 to 0.5)): 0.489

## AGACTCCA (double strand) [8-mer AGACTCCA]
[8]
  binding signal (PBM E-score (-0.5 to 0.5)): 0.457

## ATGAGTCA (double strand) [8-mer ATGAGTCA]
[10]
  binding signal (PBM E-score (-0.5 to 0.5)): 0.493

## AAAAGGTC (double strand) [8-mer AAAAGGTC]
[11]
  binding signal (PBM E-score (-0.5 to 0.5)): 0.456

## GTGAGTCA (double strand) [8-mer GTGAGTCA]
[10]
  binding signal (PBM E-score (-0.5 to 0.5)): 0.478

## AACAGGTG (double strand) [8-mer AACAGGTG]
[12]
  binding signal (PBM E-score (-0.5 to 0.5)): 0.488
[13]
  binding signal (PBM E-score (-0.5 to 0.5)): 0.468

## AGCAACAG (double strand) [8-mer AGCAACAG]
[13]
  binding signal (PBM E-score (-0.5 to 0.5)): 0.466

## ACTTGTTG (double strand) [8-mer ACTTGTTG]
[13]
  binding signal (PBM E-score (-0.5 to 0.5)): 0.465

## TGGCGCAA (double strand) [8-mer TGGCGCAA]
[6]
  binding signal (PBM E-score (-0.5 to 0.5)): 0.461

## ATGTTGCA (double strand) [8-mer ATGTTGCA]
[3]
  binding signal (PBM E-score (-0.5 to 0.5)): 0.459
[14]
  binding signal (PBM E-score (-0.5 to 0.5)): 0.497

Reference: PMC4434323
